Assay in all cases: single-molecule TIRF colocalisation imaging
The target of assay [1] is H3K9me3 and H4KS16ac chromatin fiber, 12 × 601 array with 177 bp NRL (a177) (human) (UniProt P62805).
The target of assay [2] is H3K9me3 chromatin fiber, 12 × 601 array with 197 bp nucleosome repeat length (a197) (human) (UniProt P62805).
Assay [3] has as its target H3K9me3 chromatin fiber, 12 × 601 array with 177 bp nucleosome repeat length (a177) (human) (UniProt P62805).
For assay [4], the target named is H3K9me3 and H4KS16ac chromatin fiber, 12 × 601 array with 197 bp NRL (a197) (human) (UniProt P62805).
Assay [5] deals with H3K9me3 chromatin fiber, 12 × 601 array with 177 bp nucleosome repeat length (a177) (human) (UniProt P62805). This is another data set of the same source.

This passage reports kon, tau off,1 (residence time, fast phase) and tau off,2 (residence time, slow phase) results from article PMC5737501.

Read-outs that look alike come from different tables or passages of the source.

Phosphorylated HP1α (pHP1α), Atto532-labeled, phosphorylated with casein kinase 2, sequence (P45973 whole entry): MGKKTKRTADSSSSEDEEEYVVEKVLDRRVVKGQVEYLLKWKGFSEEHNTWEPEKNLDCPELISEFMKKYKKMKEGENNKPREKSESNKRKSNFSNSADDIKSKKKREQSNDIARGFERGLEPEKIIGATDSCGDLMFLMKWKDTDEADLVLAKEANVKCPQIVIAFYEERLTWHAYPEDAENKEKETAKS
HP1α, labeled with Atto532 at its C-terminus, sequence (P45973 whole entry): as above
HP1γ, labeled with Atto532 at its C-terminus, sequence (Q13185 whole entry): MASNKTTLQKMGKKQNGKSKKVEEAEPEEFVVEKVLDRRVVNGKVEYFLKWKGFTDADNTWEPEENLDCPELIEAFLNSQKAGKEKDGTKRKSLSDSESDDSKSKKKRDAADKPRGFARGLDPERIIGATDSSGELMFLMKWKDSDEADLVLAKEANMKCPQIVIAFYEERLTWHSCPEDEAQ
HP1β, labeled with Atto532 at its C-terminus, sequence (P83916 whole entry): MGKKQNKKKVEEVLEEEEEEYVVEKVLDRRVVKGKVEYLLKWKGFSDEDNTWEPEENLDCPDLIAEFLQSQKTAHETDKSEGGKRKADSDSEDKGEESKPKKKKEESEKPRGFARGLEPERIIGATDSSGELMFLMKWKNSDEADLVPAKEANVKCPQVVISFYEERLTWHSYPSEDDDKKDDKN

Usually kon stands for a measure of how fast the partners come together. As to “HP1α, labeled with Atto532 at its C-terminus (from UniProt P45973 1-191) (natural protein)”, the on-rate constant (kon) stood at 2.76e+06 M⁻¹ s⁻¹ in assay [1]; 2.51e+06 M⁻¹ s⁻¹ in assay [2]; 1.1e+06 M⁻¹ s⁻¹ in assay [3]; 2.25e+06 M⁻¹ s⁻¹ in assay [4]; 360000 M⁻¹ s⁻¹ in assay [5]. Moreover, the tau off,1 (residence time, fast phase) in assay [1] worked out at 0.19 s; in assay [2], 0.24 s; in assay [3], 0.19 s; in assay [4], 0.16 s; in assay [5] it was 0.14 s. For the same substance, the tau off,2 (residence time, slow phase) in assay [1] turned out to be 1.92 s; in assay [2] it was 2.49 s; in assay [3] it was 3.32 s; in assay [4] it was 2 s; in assay [5] it was 2.97 s.
For the substance “Phosphorylated HP1α (pHP1α), Atto532-labeled, phosphorylated with casein kinase 2 (from UniProt P45973 1-191) (natural protein)”, in assay [3], the kon was 1.73e+06 M⁻¹ s⁻¹; the tau off,1 (residence time, fast phase) came to 0.26 s; the tau off,2 (residence time, slow phase) came to 5.6 s.
In assay [3], “HP1β, labeled with Atto532 at its C-terminus (from UniProt P83916 1-185) (natural protein)” showed a kon of 670000 M⁻¹ s⁻¹; a tau off,1 (residence time, fast phase) of 0.19 s; a tau off,2 (residence time, slow phase) of 3.6 s.
Take “HP1γ, labeled with Atto532 at its C-terminus (from UniProt Q13185 1-183) (natural protein)”: in assay [3], the kon turned out to be 890000 M⁻¹ s⁻¹; the tau off,1 (residence time, fast phase) was determined as 0.17 s; the tau off,2 (residence time, slow phase) was 2.64 s.
